Laboratory results as given in US20080220049A1 (published 2008).
Where a chain is given by its changes, count along the chain named.

B1: wild type fibronectin-based scaffold protein (tenth type III domain of human fibronectin) (other)
chain: VSDVPRDLEVVAATPTSLLISWDAPAVTVRYYRITYGETGGNSPVQEFTVPGSKSTATISGLKPGVDYTITGYAVTGRGDSPASSKPISINYRT
notes: E. coli produced with His6 tag; also called WT; 10Fn3
B2: E2 (designed binder)
chain: EVVAATPTSLLISWRHPHFPTRYYRITYGETGGNSPVQEFTVPLQPPTATISGLKPGVDYTITGYAVTDGPNDRLLNIPISINYRT
notes: 10Fn3 variant, residues 1-8 deleted
B3: F5 (designed binder)
chain: B2 chain with K55R, D69V, G70E, P71R, N72D, D73G, L75E
notes: Del 1-8; assay tags not included
B4: 3′E10 PR4 (designed binder)
chain: B2 chain with D69A, P71H, N72K, R74Q, L75E, N77L, I78T
B5: 2′Del F6 PR4 (designed binder)
chain: B2 chain with D69L, P71W, R74H, L75E, N77Y
B6: F6 (designed binder)
chain: B2 chain with D69V, G70E, P71Q, D73G, L75V, N77M, I78T, I82T
notes: Del 1-8; assay tags not included; Framework 4 printed as ISTNYRT
B7: D9 (designed binder)
chain: B2 chain with K55R, D69E, G70E, P71R, D73G, L75V, N77F, I78T
notes: as for B3

Assays:
[1] = biological target: T1, full-length human KDR on cells (human, UniProt P35968 20-1356); assay: flow cytometry on CHO KDR cells
T1 construct: whole, on cells; also called CHO KDR; CHO-KDR
Procedure: Binding of fibronectin-based scaffold protein to cell-surface KDR and Flk-1 was analyzed simultaneously on VEGF-R2-expressing and control cells by flow cytometry. CHO-pcDNA3 cells (control) were released from their dishes with trypsin-EDTA, washed in Dulbecco's PBS without calcium and magnesium (D-PBS⁻; Invitrogen), and stained for 30 minutes at 37° C. with 1.5 μM CMTMR (5-(and-6)-(((4-chloromethyl)benzoyl)amino)-tetramethylrhodamine) (Molecular Probes). The cells were washed in D-PBS⁻ and incubated for a further 30 minutes at 37° C., and then resuspended in blocking buffer (D-PBS⁻/10% fetal bovine serum) on ice. CHO-KDR or CHO-Flk cells were treated identically except that CMTMR was omitted. […] For cells treated with an anti-KDR mouse monoclonal antibody (Accurate Chemical, Westbury, N.Y.) or an anti-flk-1 goat polyclonal antibody (R&D Systems), the anti-His₆ step was omitted, and antibody binding was detected with the species-appropriate Alexa Fluor 488 conjugated secondary antibody (Molecular Probes). Following staining, cells were resuspended in 200 μl/well D-PBS⁻/1% FBS/1 μg/ml 7-aminoactinomycin D (7-AAD; Molecular Probes) and analyzed by flow cytometry on a FACSCalibur (Becton Dickinson, San Jose, Calif.) equipped with a […] laser. […]

[2] = biological target: T2, mouse vascular endothelial growth factor receptor-2 Fc chimera (Flk-1-Fc) (mouse, UniProt P35918 20-762); assay: radioactive equilibrium binding assay, % of input at 1 nM Flk-1-Fc
T2 construct: Purchased from R&D Systems; also called mouse VEGF-R2; not shown: Fc portion of the purchased chimera is not described
T2 sequence (P35918 20-762, change not shown): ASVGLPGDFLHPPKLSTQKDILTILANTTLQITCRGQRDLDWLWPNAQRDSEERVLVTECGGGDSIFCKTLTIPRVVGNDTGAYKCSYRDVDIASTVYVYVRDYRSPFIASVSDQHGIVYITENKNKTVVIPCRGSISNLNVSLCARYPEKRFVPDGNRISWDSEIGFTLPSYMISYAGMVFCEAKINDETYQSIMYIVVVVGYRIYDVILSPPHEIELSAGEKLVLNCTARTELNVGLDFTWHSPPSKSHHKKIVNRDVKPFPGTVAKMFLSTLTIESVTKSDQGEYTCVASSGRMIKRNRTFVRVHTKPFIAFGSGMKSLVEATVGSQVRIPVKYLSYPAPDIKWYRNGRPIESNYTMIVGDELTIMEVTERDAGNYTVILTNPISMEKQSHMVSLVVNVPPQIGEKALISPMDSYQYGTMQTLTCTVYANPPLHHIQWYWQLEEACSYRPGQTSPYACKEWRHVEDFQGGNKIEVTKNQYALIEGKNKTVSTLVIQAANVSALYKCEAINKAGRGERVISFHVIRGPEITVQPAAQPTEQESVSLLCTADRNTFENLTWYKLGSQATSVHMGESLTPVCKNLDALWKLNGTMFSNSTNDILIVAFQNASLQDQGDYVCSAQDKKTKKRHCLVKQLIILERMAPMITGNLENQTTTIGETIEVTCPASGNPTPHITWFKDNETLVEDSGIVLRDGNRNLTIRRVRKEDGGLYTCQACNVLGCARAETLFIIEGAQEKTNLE

[3] = biological target: T3, mouse vascular endothelial growth factor receptor-2 Fc chimera (Flk-1-Fc) (mouse, UniProt P35918 20-762); assay: radioactive equilibrium binding, 1 nM Flk-1-Fc
T3 construct: Bought from R&D Systems; also called mouse VEGFR-2; Fc part of the bought chimera not given
Procedure: (§1) To prepare ³⁵S-labeled binding proteins for analysis, mRNA was prepared as described above for RNA-protein fusion production but the linker ligation step was omitted. The mRNA was expressed using rabbit reticulocyte lysate translation kit (Ambion) in the presence of ³⁵S-labeled Met at 30° C. for 1 hour. Expressed protein was purified on M2-agarose Flag beads (Sigma) as described above. This procedure produced the encoded protein without the nucleic acid tail. In a direct binding assay, VEGF-R2-Fc fusions in concentrations ranging from 0 to 200 nM were added to a constant concentration of the purified protein (0.2 or 0.5 nM) and incubated at 30° C. for 1 hour in buffer B. The receptor-binder complexes were captured using Protein A magnetic beads for another 10 minutes at room temperature using a Kingfisher™. The beads were washed with six reaction volumes of buffer B. The protein was eluted from the beads with 100 μL of 0.1 M KOH. 50 μL of the reaction mixture and elution were dried onto a LumaPlate-96 (Packard) and the amount of ³⁵S on the plate was measured using a TopCount NXT instrument (Packard). The amount of fibronectin-based scaffold protein bound to the target was estimated as a percent of radioactivity eluted from Protein A magnetic beads compare to radioactivity in the reaction mixture. Nonspecific binding of fibronectin-based scaffold proteins to the beads was determined by measuring binding in the absence of KDR-Fc and represented less than 1-2% of the input. Specific binding was obtained through subtraction of nonspecific binding from total binding. Data was analyzed using the GraphPad Prizm software (GraphPad Software, Inc, San Diego, Calif.), fitted using a one site, non-linear binding equation.
T3 sequence (P35918 20-762, change not shown): as above

[4] = biological target: T4, human vascular endothelial growth factor receptor-2 Fc chimera (KDR-Fc) (human, UniProt P35968 20-764); assay: radioactive equilibrium binding, 1 nM KDR-Fc
T4 construct: range 1-764; Bought from R&D Systems; limits 1-764 are stated for the selection target; also called human VEGFR-2; not shown: human IgG1 Fc
Procedure: as §1
T4 sequence (P35968 20-764 limits assumed, change not shown, form in doubt): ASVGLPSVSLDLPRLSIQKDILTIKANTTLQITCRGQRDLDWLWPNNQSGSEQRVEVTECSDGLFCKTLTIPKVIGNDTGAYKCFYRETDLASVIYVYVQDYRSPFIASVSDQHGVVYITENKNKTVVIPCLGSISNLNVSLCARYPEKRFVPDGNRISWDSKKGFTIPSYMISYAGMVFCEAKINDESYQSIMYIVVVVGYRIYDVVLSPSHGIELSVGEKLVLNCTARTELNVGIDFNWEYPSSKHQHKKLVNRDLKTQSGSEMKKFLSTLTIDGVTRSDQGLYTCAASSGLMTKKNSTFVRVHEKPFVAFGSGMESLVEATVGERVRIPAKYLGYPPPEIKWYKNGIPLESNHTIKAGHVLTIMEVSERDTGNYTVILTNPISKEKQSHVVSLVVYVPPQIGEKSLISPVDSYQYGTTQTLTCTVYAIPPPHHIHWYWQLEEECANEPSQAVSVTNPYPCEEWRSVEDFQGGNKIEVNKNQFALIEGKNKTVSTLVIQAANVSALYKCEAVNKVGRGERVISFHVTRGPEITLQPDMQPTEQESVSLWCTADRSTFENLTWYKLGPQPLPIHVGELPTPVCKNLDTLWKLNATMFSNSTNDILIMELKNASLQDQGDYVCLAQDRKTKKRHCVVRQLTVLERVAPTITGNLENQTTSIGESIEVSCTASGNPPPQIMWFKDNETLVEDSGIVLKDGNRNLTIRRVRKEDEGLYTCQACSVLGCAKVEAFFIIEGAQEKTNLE

[5] = biological target: T5, human vascular endothelial growth factor receptor-2 Fc chimera (KDR-Fc) (human, UniProt P35968 20-764); assay: radioactive equilibrium binding, 1 nM KDR-Fc
T5 construct: range 1-764; bought from R&D Systems; stated range 1-764 counts from the first residue of the precursor; also called human VEGF-R2-Fc; not shown: human IgG1 Fc
Procedure: as §1
T5 sequence (P35968 20-764 limits assumed, change not shown, form in doubt): as above

T1 sequence (P35968 20-1356): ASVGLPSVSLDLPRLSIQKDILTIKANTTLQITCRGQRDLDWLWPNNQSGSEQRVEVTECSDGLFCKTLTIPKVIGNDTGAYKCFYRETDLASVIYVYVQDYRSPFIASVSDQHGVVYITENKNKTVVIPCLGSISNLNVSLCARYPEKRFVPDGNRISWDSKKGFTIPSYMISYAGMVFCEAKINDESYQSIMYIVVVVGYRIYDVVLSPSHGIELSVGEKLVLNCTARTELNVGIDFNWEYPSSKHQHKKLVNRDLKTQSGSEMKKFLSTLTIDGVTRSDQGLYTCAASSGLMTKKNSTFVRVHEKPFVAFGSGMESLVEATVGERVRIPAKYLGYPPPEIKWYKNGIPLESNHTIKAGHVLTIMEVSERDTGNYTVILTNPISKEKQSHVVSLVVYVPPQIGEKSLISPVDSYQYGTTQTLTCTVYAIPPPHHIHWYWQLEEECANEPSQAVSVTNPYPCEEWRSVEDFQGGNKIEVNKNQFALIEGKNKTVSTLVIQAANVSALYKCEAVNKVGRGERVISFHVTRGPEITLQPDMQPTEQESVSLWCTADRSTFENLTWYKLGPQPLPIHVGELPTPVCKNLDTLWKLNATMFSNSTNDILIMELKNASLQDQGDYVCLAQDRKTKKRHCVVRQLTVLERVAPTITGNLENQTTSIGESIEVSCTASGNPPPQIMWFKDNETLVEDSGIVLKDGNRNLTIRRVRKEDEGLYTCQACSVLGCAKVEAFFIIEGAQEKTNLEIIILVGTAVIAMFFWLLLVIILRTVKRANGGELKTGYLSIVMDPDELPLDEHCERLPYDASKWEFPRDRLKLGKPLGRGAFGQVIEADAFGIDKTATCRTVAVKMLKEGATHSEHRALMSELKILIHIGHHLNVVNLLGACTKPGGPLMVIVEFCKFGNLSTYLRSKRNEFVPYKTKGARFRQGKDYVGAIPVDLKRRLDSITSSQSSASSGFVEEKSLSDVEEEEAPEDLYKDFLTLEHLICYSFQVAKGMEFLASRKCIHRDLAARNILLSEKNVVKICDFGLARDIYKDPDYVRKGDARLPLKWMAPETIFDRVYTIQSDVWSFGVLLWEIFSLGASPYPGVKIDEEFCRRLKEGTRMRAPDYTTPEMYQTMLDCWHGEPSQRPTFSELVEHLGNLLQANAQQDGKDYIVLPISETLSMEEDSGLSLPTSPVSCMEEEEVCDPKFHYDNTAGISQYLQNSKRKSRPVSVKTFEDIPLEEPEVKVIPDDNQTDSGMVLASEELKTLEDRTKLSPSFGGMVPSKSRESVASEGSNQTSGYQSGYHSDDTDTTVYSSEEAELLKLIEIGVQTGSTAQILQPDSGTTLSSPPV

| Binder | Binding to 1 nM Flk-1, % [3] [%] | Binding to 1 nM KDR, % [4] [%] | also measured |
| --- | --- | --- | --- |
| B1 | – | – | binding result [1]: no binding |
| B2 | – | – | Binding to 1 nM FLK, % [2]: 10% |
| B3 | 8 | 12 | – |
| B4 | – | – | Binding to 1 nM KDR, % [5]: 21% |
| B5 | – | – | Binding to 1 nM KDR, % [5]: 22% |
| B6 | 2 | 37 | – |
| B7 | 40 | 31 | – |
